Key:
Assay in all cases: holdup assay
Design in all cases: key: below the threshold = too weak to quantify, mostly under pKd 3.1 to 4
SNTG2, Q9NY99 = biological target: T1, SNTG2, Q9NY99
T1 sequence (Q9NY99 68-166, limits assumed, looked up): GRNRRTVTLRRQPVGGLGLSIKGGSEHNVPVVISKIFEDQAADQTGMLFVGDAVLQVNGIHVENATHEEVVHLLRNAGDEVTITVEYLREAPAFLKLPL

MAGI3_6, Q5TCQ9 = conditions: plain residues with an end cap or a label only (N-terminal biotin on a linker: (peg)3)
MAGI1_4, Q96QZ7 = conditions: plain residues with an end cap or a label only (N-terminal biotin on a linker: (peg)3)
NHERF4_3, Q86UT5 = conditions: plain residues with an end cap or a label only (N-terminal biotin on a linker: (peg)3)
RGS3, P49796-9 = conditions: plain residues with an end cap or a label only (N-terminal biotin on a linker: (peg)3)
DLG2_1, Q15700 = conditions: plain residues with an end cap or a label only (N-terminal biotin on a linker: (peg)3)
SCRIB_4, Q14160 = conditions: plain residues with an end cap or a label only (N-terminal biotin on a linker: (peg)3)
SDCBP_1, O00560 = conditions: plain residues with an end cap or a label only (N-terminal biotin on a linker: (peg)3)
PARD3_1, Q8TEW0 = conditions: plain residues with an end cap or a label only (N-terminal biotin on a linker: (peg)3)
SYNPO2L, Q9H987 = biological target: T2, SYNPO2L, Q9H987; conditions: plain residues with an end cap or a label only (N-terminal biotin on a linker: (peg)3)
T2 sequence (Q9H987 1-98, limits assumed, looked up): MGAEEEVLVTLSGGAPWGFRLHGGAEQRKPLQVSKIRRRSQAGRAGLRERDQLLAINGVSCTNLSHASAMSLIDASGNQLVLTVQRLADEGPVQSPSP

NHERF1_2, O14745 = biological target: T3, NHERF1_2, O14745; conditions: plain residues with an end cap or a label only (N-terminal biotin on a linker: (peg)3)
T3 sequence (O14745 149-244, limits assumed, looked up): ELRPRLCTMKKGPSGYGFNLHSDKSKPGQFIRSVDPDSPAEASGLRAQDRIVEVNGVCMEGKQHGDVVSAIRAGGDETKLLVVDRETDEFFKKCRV

MAGI2_1, Q86UL8 = biological target: T4, MAGI2_1, Q86UL8; conditions: plain residues with an end cap or a label only (N-terminal biotin on a linker: (peg)3)
T4 sequence (Q86UL8 12-111, limits assumed, looked up): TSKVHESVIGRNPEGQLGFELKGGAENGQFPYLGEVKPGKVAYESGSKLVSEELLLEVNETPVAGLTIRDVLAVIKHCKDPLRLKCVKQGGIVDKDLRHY

Inadl_7, Q8NI35 = conditions: plain residues with an end cap or a label only (N-terminal biotin on a linker: (peg)3)
MAGI1_5, Q96QZ7 = conditions: plain residues with an end cap or a label only (N-terminal biotin on a linker: (peg)3)
MAGI1_6, Q96QZ7 = conditions: plain residues with an end cap or a label only (N-terminal biotin on a linker: (peg)3)
PTPN13_4, Q12923 = biological target: T5, PTPN13_4, Q12923; conditions: plain residues with an end cap or a label only (N-terminal biotin on a linker: (peg)3)
T5 sequence (Q12923 1783-1878, limits assumed, looked up): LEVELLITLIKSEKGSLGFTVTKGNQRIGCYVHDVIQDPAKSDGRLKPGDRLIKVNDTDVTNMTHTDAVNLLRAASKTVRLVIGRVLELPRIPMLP

TJP3_2, O95049 = biological target: T6, TJP3_2, O95049; conditions: plain residues with an end cap or a label only (N-terminal biotin on a linker: (peg)3)
T6 sequence (O95049 190-282, limits assumed, looked up): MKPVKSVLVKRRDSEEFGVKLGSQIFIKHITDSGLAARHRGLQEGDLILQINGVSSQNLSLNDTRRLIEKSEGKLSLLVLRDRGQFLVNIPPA

PDLIM4, P50479 = conditions: plain residues with an end cap or a label only (N-terminal biotin on a linker: (peg)3)
DVL2, O14641 = conditions: plain residues with an end cap or a label only (N-terminal biotin on a linker: (peg)3)
TJP3_1, O95049 = biological target: T7, TJP3_1, O95049; conditions: plain residues with an end cap or a label only (N-terminal biotin on a linker: (peg)3)
T7 sequence (O95049 6-103, limits assumed, looked up): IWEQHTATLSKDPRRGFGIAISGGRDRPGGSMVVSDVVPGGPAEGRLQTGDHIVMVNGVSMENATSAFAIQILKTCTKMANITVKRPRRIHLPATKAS

MPDZ_3, O75970 = biological target: T8, MPDZ_3, O75970; conditions: plain residues with an end cap or a label only (N-terminal biotin on a linker: (peg)3)
T8 sequence (O75970 372-473, limits assumed, looked up): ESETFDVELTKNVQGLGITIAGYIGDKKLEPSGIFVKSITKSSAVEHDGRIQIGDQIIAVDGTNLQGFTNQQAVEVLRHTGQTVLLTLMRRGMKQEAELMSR

MPDZ_11, O75970 = biological target: T9, MPDZ_11, O75970; conditions: plain residues with an end cap or a label only (N-terminal biotin on a linker: (peg)3)
T9 sequence (O75970 1720-1817, limits assumed, looked up): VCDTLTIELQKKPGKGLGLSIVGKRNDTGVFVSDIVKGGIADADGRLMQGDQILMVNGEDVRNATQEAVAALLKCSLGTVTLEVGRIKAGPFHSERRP

GIPC1, O14908 = biological target: T10, GIPC1, O14908; conditions: plain residues with an end cap or a label only (N-terminal biotin on a linker: (peg)3)
T10 sequence (O14908 128-223, limits assumed, looked up): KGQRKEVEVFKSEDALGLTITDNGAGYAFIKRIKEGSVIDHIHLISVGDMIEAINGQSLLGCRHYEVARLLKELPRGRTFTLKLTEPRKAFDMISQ

DLG5_2, Q8TDM6 = conditions: plain residues with an end cap or a label only (N-terminal biotin on a linker: (peg)3)
MAGI1_3, Q96QZ7 = conditions: plain residues with an end cap or a label only (N-terminal biotin on a linker: (peg)3)
MLLT4, P55196 = biological target: T11, MLLT4, P55196; conditions: plain residues with an end cap or a label only (N-terminal biotin on a linker: (peg)3)
T11 sequence (P55196 1002-1103, limits assumed, looked up): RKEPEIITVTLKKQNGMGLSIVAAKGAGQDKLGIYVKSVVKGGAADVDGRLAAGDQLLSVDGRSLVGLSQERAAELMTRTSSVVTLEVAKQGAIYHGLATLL

GRIP2_2, Q9C0E4 = conditions: plain residues with an end cap or a label only (N-terminal biotin on a linker: (peg)3)
[1] = plain residues with an end cap or a label only (N-terminal biotin on a linker: ado-ado)

Chain of SDCBP_1, O00560 (O00560 111-198): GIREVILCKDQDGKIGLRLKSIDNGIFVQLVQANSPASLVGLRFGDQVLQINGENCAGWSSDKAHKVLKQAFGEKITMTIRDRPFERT
Chain of Inadl_7, Q8NI35 (Q8NI35 1219-1332): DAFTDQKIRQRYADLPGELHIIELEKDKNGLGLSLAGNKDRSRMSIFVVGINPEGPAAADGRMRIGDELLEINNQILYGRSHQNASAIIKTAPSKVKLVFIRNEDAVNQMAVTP
Chain of DVL2, O14641 (O14641 260-359): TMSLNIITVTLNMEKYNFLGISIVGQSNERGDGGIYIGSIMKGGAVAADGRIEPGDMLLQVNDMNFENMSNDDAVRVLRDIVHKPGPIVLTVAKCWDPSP
Chain of GRIP2_2, Q9C0E4 (Q9C0E4 137-245): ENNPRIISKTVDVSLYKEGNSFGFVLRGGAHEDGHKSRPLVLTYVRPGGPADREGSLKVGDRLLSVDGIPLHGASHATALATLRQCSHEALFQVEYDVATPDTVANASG
Chain of PDLIM4, P50479 (P50479 1-83): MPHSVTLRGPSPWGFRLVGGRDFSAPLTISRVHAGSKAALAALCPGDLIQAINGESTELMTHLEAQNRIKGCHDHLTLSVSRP
Chain of PARD3_1, Q8TEW0 (Q8TEW0 264-372): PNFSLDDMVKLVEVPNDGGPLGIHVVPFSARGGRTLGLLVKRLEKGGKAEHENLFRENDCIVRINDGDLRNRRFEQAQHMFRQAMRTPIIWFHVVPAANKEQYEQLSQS
Chain of MAGI1_3, Q96QZ7 (Q96QZ7 638-725): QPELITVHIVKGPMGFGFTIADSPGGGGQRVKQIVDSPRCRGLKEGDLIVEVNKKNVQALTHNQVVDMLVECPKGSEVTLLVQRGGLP
Chain of MAGI1_4, Q96QZ7 (Q96QZ7 other isoform, or with tags, fused parts or gaps): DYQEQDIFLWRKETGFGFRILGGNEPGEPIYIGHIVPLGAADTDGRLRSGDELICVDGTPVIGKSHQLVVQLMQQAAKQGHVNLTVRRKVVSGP
Chain of SCRIB_4, Q14160 (Q14160 1095-1204): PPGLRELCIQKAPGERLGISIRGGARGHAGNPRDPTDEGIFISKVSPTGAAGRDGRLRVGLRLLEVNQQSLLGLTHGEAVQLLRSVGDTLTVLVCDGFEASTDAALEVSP
Chain of MAGI3_6, Q5TCQ9 (Q5TCQ9 1014-1103): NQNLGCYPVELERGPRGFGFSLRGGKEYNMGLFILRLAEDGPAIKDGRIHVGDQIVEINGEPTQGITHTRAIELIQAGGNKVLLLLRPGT
Chain of NHERF4_3, Q86UT5 (Q86UT5 325-412): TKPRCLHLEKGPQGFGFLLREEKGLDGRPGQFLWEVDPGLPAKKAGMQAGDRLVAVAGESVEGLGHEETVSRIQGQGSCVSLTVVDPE
Chain of RGS3, P49796-9 (P49796 other isoform, or with tags, fused parts or gaps): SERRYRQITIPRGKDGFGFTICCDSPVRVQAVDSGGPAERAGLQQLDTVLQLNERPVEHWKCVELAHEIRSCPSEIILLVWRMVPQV
Chain of DLG5_2, Q8TDM6 (Q8TDM6 714-800): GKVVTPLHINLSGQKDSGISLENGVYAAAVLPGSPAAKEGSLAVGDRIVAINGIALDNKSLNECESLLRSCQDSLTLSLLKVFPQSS
Chain of MAGI1_5, Q96QZ7 (Q96QZ7 986-1098): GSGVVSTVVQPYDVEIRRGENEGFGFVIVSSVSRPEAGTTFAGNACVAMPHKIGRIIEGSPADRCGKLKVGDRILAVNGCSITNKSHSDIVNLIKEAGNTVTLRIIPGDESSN
Chain of MAGI1_6, Q96QZ7 (Q96QZ7 1146-1238): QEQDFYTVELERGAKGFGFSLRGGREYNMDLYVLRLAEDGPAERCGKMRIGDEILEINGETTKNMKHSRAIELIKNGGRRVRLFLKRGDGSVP

For LPAHHNATRL [SLC34A1, Q06495;Q06495-1], the pKd (SNTG2, Q9NY99; [1]) was 4.15.

For LRSPRTPSEV [OR10G3, Q8NGC4], the pKd (SNTG2, Q9NY99; [1]) was “below the threshold”.

Binder RRRESYSTTV [EVI5, O60447] has a pKd (SNTG2, Q9NY99; [1]) of 4.13.

In the case of SKPTRRETEV [HPV35-E6_-2P, P27228], the pKd (SNTG2, Q9NY99; modified: phospho on T at position -2 from the C-terminal residue) is reported as “below the threshold”.

In the case of RRLPGKETMA [GRIK2, Q13002], the pKd (SNTG2, Q9NY99; [1]) is reported as “below the threshold”.

In the case of NLNSSEGVPDLLV [SARS-CoV-E, P59637], the pKd (MAGI3_6, Q5TCQ9) is reported as “below the threshold”, the pKd (MAGI1_4, Q96QZ7) is reported as “below the threshold” and the pKd (NHERF4_3, Q86UT5) is reported as “below the threshold”. The pKd (RGS3, P49796-9) was “below the threshold”, the pKd (DLG2_1, Q15700) was “below the threshold” and the pKd (SCRIB_4, Q14160) was “below the threshold”. The pKd (SDCBP_1, O00560) was “below the threshold”, the pKd (PARD3_1, Q8TEW0) was 3.79 and the pKd (SYNPO2L, Q9H987) was “below the threshold”. For the same binder, the pKd (NHERF1_2, O14745) was 3.74, the pKd (MAGI2_1, Q86UL8) was “below the threshold” and the pKd (Inadl_7, Q8NI35) was “below the threshold”. The pKd (MAGI1_5, Q96QZ7) was “below the threshold”, the pKd (MAGI1_6, Q96QZ7) was “below the threshold” and the pKd (PTPN13_4, Q12923) was 4.64. For the same binder, the pKd (TJP3_2, O95049) was “below the threshold”, the pKd (PDLIM4, P50479) was “below the threshold” and the pKd (DVL2, O14641) was “below the threshold”. For the same binder, the pKd (TJP3_1, O95049) was “below the threshold”, the pKd (MPDZ_3, O75970) was “below the threshold” and the pKd (MPDZ_11, O75970) was “below the threshold”. The pKd (GIPC1, O14908) was “below the threshold”, the pKd (SNTG2, Q9NY99; plain residues with an end cap or a label only (N-terminal biotin on a linker: (peg)3)) was “below the threshold” and the pKd (DLG5_2, Q8TDM6) was “below the threshold”. The pKd (MAGI1_3, Q96QZ7) was “below the threshold”, the pKd (MLLT4, P55196) was 4.31 and the pKd (GRIP2_2, Q9C0E4) was “below the threshold”.

For YNNCLEILRV [DCAF7, P61962], the pKd (SNTG2, Q9NY99; [1]) was “below the threshold”.

Source: publication PMC9482650, “Quantitative fragmentomics allow affinity mapping of interactomes” (Nature Communications, 2022)
